First the molecules themselves.
B1: 74C8 chimeric llama-human IgG1 mAb (antibody, V domains shown)
VH: EVQLVESGGGLVQPGGSLRLSCAASGFTFRNYHMSWVRQVPGKGFEWISDINSAGGSTYYADSVKGRFTISRDNAKNTLYLEMNSLKPEDTALYYCARVNVWGVNYWGKGTLVSVSS
VL: QTVVTQEPSLSVSPGGTVTLTCGLSSGSVTTSNYPGWFQQTPGQAPRTLIYNTNSRHSGVPSRFSGSISGNKAALTITGAQPEDEADYYCSLYPGSYTNVFGGGTHLTVL
notes: human IgG1 CH1-CH2-CH3 and human CL lambda
B2: 72F8 chimeric llama-human IgG1 mAb (antibody, V domains shown)
VH: ELQLVESGGGLVQPGGSLRLSCAASGFTFSNYVMSWVRQAPGKGLEWVSDTNSGGSTSYADSVKGRFTISRDNAKNTLYLQMNSLKPEDTALYYCARSFFYGMNYWGKGTQVTVSS
VL: QSALTQPPSLSASPGSSVRLTCTLSSGNNIGSYDISWYQQKAGSPPRYLLNYYTDSRKHQDSGVPSRFSGSKDASANAGLLLISGLQPEDEADYYCSAYKSGSYRWVFGGGTHVTVL
notes: as for B1
B3: 71G12 chimeric llama-human IgG1 mAb (antibody, V domains shown)
VH: QVQLQESGGDLVQPGGSLRVSCVVSGFTFSRYYMSWVRQAPGKGLEWVSSIDSYGYSTYYTDSVKGRFTISRDNAKNTLYLQMNSLKPEDTALYYCARAKTTWSYDYWGQGTQVTVSS
VL: EIVLTQSPSSVTASVGGKVTINCKSSQSVFIASNQKTYLNWYQQRPGQSPRLVISYASTRESGIPDRFSGSGSTTDFTLTISSVQPEDAAVYYCQQAYSHPTFGQGTKVELK
notes: human IgG1 CH1-CH2-CH3 and human CL kappa
B4: recombinant mouse HGF (R&D Systems) (ligand, UniProt Q08048 33-728, looked up)
chain: QKKRRNTLHEFKKSAKTTLTKEDPLLKIKTKKVNSADECANRCIRNRGFTFTCKAFVFDKSRKRCYWYPFNSMSSGVKKGFGHEFDLYENKDYIRNCIIGKGGSYKGTVSITKSGIKCQPWNSMIPHEHSFLPSSYRGKDLQENYCRNPRGEEGGPWCFTSNPEVRYEVCDIPQCSEVECMTCNGESYRGPMDHTESGKTCQRWDQQTPHRHKFLPERYPDKGFDDNYCRNPDGKPRPWCYTLDPDTPWEYCAIKTCAHSAVNETDVPMETTECIQGQGEGYRGTSNTIWNGIPCQRWDSQYPHKHDITPENFKCKDLRENYCRNPDGAESPWCFTTDPNIRVGYCSQIPKCDVSSGQDCYRGNGKNYMGNLSKTRSGLTCSMWDKNMEDLHRHIFWEPDASKLNKNYCRNPDDDAHGPWCYTGNPLIPWDYCPISRCEGDTTPTIVNLDHPVISCAKTKQLRVVNGIPTQTTVGWMVSLKYRNKHICGGSLIKESWVLTARQCFPARNKDLKDYEAWLGIHDVHERGEEKRKQILNISQLVYGPEGSDLVLLKLARPAILDNFVSTIDLPSYGCTIPEKTTCSIYGWGYTGLINADGLLRVAHLYIMGNEKCSQHHQGKVTLNESELCAGAEKIGSGPCEGDYGGPLICEQHKMRMVLGVIVPGRGCAIPNRPGIFVRVAYYAKWIHKVILTYKL
modifications: biotinylated at the N-terminus using NHS-LC-biotin (in the competition ELISA only)
B5: 76G7 chimeric llama-human IgG1 mAb (antibody, V domains shown)
VH: QVQLVESGGNLVQPGGSLRLSCAASGFTFSNYYMSWVRQAPGKGLEWVSDIYSDGSTTWYSDSVKGRFTISRDNAKNTLSLQMNSLKSEDTAVYYCARVKIYPGGYDAWGQGTQVTVSS
VL: QAGLTQPPSVSGSPGKTVTISCAGNSSDVGYGNYVSWYQQFPGMAPKLLIYLVNKRASGITDRFSGSKSGNTASLTISGLQSEDEADYYCASYTGSNNIVFGGGTHLTVL
notes: as for B1
B6: 71G3 llama-mouse chimeric mAb (mouse IgG1/lambda) (antibody, V domains shown)
VH: QVQLVESGGGLVQPGGSLRVSCAASGFTFSTYYMSWVRQAPGKGLEWVSDIRTDGGTYYADSVKGRFTMSRDNAKNTLYLQMNSLKPEDTALYYCARTRIFPSGYDYWGQGTQVTVSS
VL: QAVVTQEPSLSVSPGGTVTLTCGLSSGSVTTSNYPGWFQQTPGQAPRTLIYNTNSRHSGVPSRFSGSISGNKAALTIMGAQPEDEADYYCSLYPGSTTVFGGGTHLTVLG
B7: 71G2 llama-mouse chimeric mAb (mouse IgG1/lambda) (antibody, V domains shown)
VH: EVQLQESGGGLVQPGGSLRLSCAASGFTFSIYDMSWVRQAPGKGLEWVSTINSDGSSTSYVDSVKGRFTISRDNAKNTLYLQMNSLKPEDTAVYYCAKVYGSTWDVGPMGYGMDYWGKGTLVTVSS
VL: SSALTQPSALSVSLGQTARITCQGGSLGSSYAHWYQQKPGQAPVLVIYGDDSRPSGIPERFSGSSSGGTATLTISGAQAEDEDDYYCQSTDSSGNTVFGGGTRLTVLG

T2 sequence (P08581 25-1390): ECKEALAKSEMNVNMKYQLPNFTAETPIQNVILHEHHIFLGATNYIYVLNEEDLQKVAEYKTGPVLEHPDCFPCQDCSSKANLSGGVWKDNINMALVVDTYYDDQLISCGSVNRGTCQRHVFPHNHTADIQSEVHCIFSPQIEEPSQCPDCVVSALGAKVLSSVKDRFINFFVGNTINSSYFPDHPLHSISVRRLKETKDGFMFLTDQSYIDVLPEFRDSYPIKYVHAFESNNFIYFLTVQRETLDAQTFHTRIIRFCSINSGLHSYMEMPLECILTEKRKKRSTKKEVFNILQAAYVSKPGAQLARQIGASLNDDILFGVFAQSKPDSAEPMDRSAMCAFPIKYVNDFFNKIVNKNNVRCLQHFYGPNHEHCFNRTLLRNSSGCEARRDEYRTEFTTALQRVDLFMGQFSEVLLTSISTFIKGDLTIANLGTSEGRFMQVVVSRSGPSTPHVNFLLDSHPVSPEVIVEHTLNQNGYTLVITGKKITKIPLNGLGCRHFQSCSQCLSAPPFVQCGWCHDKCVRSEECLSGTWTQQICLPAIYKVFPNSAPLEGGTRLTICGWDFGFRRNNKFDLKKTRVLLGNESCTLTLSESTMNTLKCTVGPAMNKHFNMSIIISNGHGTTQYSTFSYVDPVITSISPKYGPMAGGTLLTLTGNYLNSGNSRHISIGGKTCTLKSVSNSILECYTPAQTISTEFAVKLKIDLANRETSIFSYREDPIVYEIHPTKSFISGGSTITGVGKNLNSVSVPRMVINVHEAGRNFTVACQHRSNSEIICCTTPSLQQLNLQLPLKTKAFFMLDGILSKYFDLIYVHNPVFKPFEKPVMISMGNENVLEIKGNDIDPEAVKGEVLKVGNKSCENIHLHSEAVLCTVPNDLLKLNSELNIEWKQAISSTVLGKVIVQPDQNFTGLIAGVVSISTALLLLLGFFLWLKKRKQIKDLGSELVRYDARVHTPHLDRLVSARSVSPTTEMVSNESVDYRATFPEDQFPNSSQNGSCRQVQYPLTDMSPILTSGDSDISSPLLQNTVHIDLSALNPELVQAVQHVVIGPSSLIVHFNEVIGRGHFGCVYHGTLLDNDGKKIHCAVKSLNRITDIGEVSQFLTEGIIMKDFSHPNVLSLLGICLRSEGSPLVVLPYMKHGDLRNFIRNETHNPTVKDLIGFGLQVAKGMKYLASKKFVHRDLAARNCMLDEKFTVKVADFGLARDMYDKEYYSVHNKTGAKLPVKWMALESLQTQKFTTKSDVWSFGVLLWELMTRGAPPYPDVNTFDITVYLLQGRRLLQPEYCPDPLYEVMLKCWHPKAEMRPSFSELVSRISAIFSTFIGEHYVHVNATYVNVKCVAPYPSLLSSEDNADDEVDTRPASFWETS

The target of one experiment is T1, native mouse MET on living cells (mouse, UniProt P16056 25-1379). Put plainly: cell-based or functional assay.
Turning to B1, the “protection from staurosporine-induced apoptosis EC50, MLP29 cells” value was over 32 nM and the “protection from staurosporine-induced apoptosis EMAX, MLP29 cells” value turned out to be 37.5%.

Turning to B2, the “protection from staurosporine-induced apoptosis EC50, MLP29 cells” value is over 32 nM and the “protection from staurosporine-induced apoptosis EMAX, MLP29 cells” value came to 43.8%.

For the molecule B3, the “protection from staurosporine-induced apoptosis EC50, MLP29 cells” value was over 32 nM and the “protection from staurosporine-induced apoptosis EMAX, MLP29 cells” value stood at 39.7%.

Take B4: the “protection from staurosporine-induced apoptosis EC50, MLP29 cells” value turned out to be 5.35 nM and the “protection from staurosporine-induced apoptosis EMAX, MLP29 cells” value is 58.6%.

For B5, the “protection from staurosporine-induced apoptosis EC50, MLP29 cells” value was 30.1 nM and the “protection from staurosporine-induced apoptosis EMAX, MLP29 cells” value is 50.2%.

The next experiment concerns the target T2, native human MET on living cells (human, UniProt P08581 25-1390). Kind of experiment: cell-based or functional assay.
Regarding B1, the “protection from staurosporine-induced apoptosis EC50, MCF10A cells” value is over 32 nM and the “protection from staurosporine-induced apoptosis EMAX, MCF10A cells” value turned out to be 41.7%.

As to B2, the “protection from staurosporine-induced apoptosis EC50, MCF10A cells” value is over 32 nM and the “protection from staurosporine-induced apoptosis EMAX, MCF10A cells” value turned out to be 35.8%.

B3: the “protection from staurosporine-induced apoptosis EC50, MCF10A cells” value was over 32 nM and the “protection from staurosporine-induced apoptosis EMAX, MCF10A cells” value was determined as 39.4%.

B5: the “protection from staurosporine-induced apoptosis EC50, MCF10A cells” value was 25.4 nM and the “protection from staurosporine-induced apoptosis EMAX, MCF10A cells” value came out at 51.9%.

Another experiment has as its target T1, native mouse MET on living cells. Kind of experiment: cell-based or functional assay. This is another data set of the same source.
B6: the “MLP29 br. m. (branch n.)” value amounted to 30.1 branches per spheroid.

B7: the “MLP29 br. m. (branch n.)” value amounted to 41.2 branches per spheroid.

The next experiment concerns the target T2, native human MET on living cells. Put plainly: cell-based or functional assay. The source holds these as a separate data set.
Consider B6, for which the “LOC br. m. (branch n.)” value came to 20.8 branches per spheroid.

Consider B7, for which the “LOC br. m. (branch n.)” value stood at 29.8 branches per spheroid.

For the next experiment, the target named is T3, human MET ECD (human, UniProt P08581 25-932).
T3 construct: range 1-932; recombinant; range as printed includes the signal peptide; also called hMET; hMET ECD
T3 sequence (P08581 25-932 limits assumed, form in doubt): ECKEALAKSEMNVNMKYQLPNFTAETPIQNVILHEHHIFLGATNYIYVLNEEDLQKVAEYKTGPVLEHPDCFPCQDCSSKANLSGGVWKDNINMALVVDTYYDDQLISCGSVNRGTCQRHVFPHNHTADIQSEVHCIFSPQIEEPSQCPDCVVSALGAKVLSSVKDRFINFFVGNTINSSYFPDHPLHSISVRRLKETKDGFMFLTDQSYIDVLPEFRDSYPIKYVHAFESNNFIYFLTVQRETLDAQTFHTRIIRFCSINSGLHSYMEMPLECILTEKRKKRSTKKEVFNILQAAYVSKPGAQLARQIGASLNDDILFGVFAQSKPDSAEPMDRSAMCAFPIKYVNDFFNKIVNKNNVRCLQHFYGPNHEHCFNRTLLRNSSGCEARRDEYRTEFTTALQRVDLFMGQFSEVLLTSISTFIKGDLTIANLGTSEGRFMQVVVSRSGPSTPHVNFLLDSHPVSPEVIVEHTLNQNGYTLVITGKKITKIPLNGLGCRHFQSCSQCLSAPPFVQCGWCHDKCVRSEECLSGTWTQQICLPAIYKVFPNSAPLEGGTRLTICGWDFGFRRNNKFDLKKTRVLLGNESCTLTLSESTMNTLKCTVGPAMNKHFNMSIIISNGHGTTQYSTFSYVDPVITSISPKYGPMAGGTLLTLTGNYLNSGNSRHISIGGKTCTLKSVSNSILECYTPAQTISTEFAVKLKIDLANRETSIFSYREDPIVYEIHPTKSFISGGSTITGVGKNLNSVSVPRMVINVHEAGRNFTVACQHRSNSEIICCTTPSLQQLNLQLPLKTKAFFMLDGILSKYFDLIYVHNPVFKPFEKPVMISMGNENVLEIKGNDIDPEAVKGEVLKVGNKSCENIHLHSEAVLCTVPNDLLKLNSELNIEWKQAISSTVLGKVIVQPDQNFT
Put plainly: ELISA, MET ECD coated, mAb 0-20 nM. As for the experimental part:
(§1) Production (by transient transfection of mammalian cells) and purification (by protein A affinity chromatography) of the resulting chimeric llama-human IgG1 molecules was outsourced to U-protein Express. Binding of chimeric mAbs to MET was determined by ELISA using hMET or mMET ECD in solid phase and increasing concentrations of antibodies (0-20 nM) in solution. […] Binding capacity (EMAX) varied from antibody to antibody, possibly due to partial epitope exposure in the immobilized antigen, but was similar in the human and mouse setting.
B1 came in with an EMAX of 0.994 OD450 AU.

B2 returned an EMAX of 2.78 OD450 AU.

B3: the EMAX stood at 3.08 OD450 AU.

As for B5, the EMAX stood at 2.62 OD450 AU.

Another experiment addresses T4, mouse MET ECD (mouse, UniProt P16056 25-931).
T4 construct: range 1-931; recombinant; range as printed includes the signal peptide; also called mMET; mMET ECD
Kind of experiment: ELISA, MET ECD coated, mAb 0-20 nM. Here is the method:
as §1
As to B1, the EMAX was determined as 0.896 OD450 AU.

Turning to B2, the EMAX turned out to be 2.9 OD450 AU.

Molecule B3 came in with an EMAX of 2.97 OD450 AU.

In turn, B5 had an EMAX of 2.78 OD450 AU.

The target of a further experiment is T1, native mouse MET on living cells. Kind of experiment: cell-based or functional assay. The source holds these as a separate data set.
With B1, the “phospho-MET ELISA EMAX, MLP29 cells” value was determined as 102 % HGF activity.

Regarding B2, the “phospho-MET ELISA EMAX, MLP29 cells” value amounted to 66.8 % HGF activity.

Take B3: the “phospho-MET ELISA EMAX, MLP29 cells” value turned out to be 75.4 % HGF activity.

Turning to B4, the “phospho-MET ELISA EMAX, MLP29 cells” value is 100 % HGF activity.

Turning to B5, the “phospho-MET ELISA EMAX, MLP29 cells” value is 71.5 % HGF activity.

Another experiment deals with T2, native human MET on living cells. Kind of experiment: cell-based or functional assay. The source holds these as a separate data set.
As for B1, the “phospho-MET ELISA EMAX, A549 cells” value was 87.6 % HGF activity.

Take B2: the “phospho-MET ELISA EMAX, A549 cells” value is 69.7 % HGF activity.

As for B3, the “phospho-MET ELISA EMAX, A549 cells” value came to 70.6 % HGF activity.

Regarding B5, the “phospho-MET ELISA EMAX, A549 cells” value was found to be 62.3 % HGF activity.

The values above are taken from US20200407452A1 (published 2020).
